{"source": "IntAct's records for PubMed 17098193", "parents": {"B1": {"name": "Splicing factor 3A subunit 1 (Homo sapiens), Q15459 (parent)", "chain": "MPAGPVQAVPPPPPVPTEPKQPTEEEASSKEDSAPSKPVVGIIYPPPEVRNIVDKTASFVARNGPEFEARIRQNEINNPKFNFLNPNDPYHAYYRHKVSEFKEGKAQEPSAAIPKVMQQQQQTTQQQLPQKVQAQVIQETIVPKEPPPEFEFIADPPSISAFDLDVVKLTAQFVARNGRQFLTQLMQKEQRNYQFDFLRPQHSLFNYFTKLVEQYTKILIPPKGLFSKLKKEAENPREVLDQVCYRVEWAKFQERERKKEEEEKEKERVAYAQIDWHDFVVVETVDFQPNEQGNFPPPTTPEELGARILIQERYEKFGESEEVEMEVESDEEDDKQEKAEEPPSQLDQDTQVQDMDEGSDDEEEGQKVPPPPETPMPPPLPPTPDQVIVRKDYDPKASKPLPPAPAPDEYLVSPITGEKIPASKMQEHMRIGLLDPRWLEQRDRSIREKQSDDEVYAPGLDIESSLKQLAERRTDIFGVEETAIGKKIGEEEIQKPEEKVTWDGHSGSMARTQQAAQANITLQEQIEAIHKAKGLVPEDDTKEKIGPSKPNEIPQQPPPPSSATNIPSSAPPITSVPRPPTMPPPVRTTVVSAVPVMPRPPMASVVRLPPGSVIAPMPPIIHAPRINVVPMPPSAPPIMAPRPPPMIVPTAFVPAPPVAPVPAPAPMPPVHPPPPMEDEPTSKKLKTEDSLMPEEEFLRRNKGPVSIKVQVPNMQDKTEWKLNGQVLVFTLPLTDQVSVIKVKIHEATGMPAGKQKLQYEGIFIKDSNSLAYYNMANGAVIHLALKERGGRKK", "partner": "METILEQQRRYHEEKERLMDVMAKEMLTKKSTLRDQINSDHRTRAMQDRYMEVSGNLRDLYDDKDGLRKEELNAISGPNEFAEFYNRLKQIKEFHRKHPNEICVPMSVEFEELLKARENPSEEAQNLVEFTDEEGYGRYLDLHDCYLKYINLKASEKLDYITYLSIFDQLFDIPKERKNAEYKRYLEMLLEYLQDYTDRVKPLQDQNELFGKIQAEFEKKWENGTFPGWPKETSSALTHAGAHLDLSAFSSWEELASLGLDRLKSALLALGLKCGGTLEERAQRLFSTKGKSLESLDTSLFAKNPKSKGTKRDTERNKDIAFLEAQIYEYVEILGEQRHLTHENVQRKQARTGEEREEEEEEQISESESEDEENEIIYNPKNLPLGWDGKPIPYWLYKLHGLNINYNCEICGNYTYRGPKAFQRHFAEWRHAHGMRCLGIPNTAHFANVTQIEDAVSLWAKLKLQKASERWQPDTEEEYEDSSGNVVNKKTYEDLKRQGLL"}}, "data": [{"variants_of": "B1", "conditions": "with sf3a3_human SF3A3, Q12874", "values": [{"variant": "L169K", "effect of a mutation on the interaction": "disrupting interaction"}]}, {"variants_of": "B1", "conditions": "with sf3a3_human SF3A3, Q12874", "remark": "another data set of the same source", "values": [{"variant": "K55L", "effect of a mutation on the interaction": "increasing interaction"}]}]}
